Each block holds one binder with its values, some of them ahead of it.
Columns and labels:
Details in all cases: partners not purified
[1] = biological target: T1, 3xFLAG-tagged PP2Acβ ΔL mutant (Leu 309 deleted) (human, UniProt P62714 1-309, ΔL309); test: affinity purification with mass spectrometry; 3xFLAG-tagged catalytic subunit (WT or ΔL) transfected in FreeStyle 293F cells; FLAG M2 affinity gel, 3 h at 4 °C; lysis and wash buffer 50 mM Tris pH 7.5, 500 mM NaCl, 0.5% Triton X-100; eluted with 3XFLAG peptide; label-free quantitative LC-MS/MS on unique peptides, three replicates
T1 construct: PP2A catalytic subunit, beta isoform (PP2Acβ, PPP2CB), human, in p3XFLAG-CMV10; C-terminal Leu 309 deleted by inserting a stop codon; also called ΔL309
T1 sequence (P62714 1-308, stated change not applied): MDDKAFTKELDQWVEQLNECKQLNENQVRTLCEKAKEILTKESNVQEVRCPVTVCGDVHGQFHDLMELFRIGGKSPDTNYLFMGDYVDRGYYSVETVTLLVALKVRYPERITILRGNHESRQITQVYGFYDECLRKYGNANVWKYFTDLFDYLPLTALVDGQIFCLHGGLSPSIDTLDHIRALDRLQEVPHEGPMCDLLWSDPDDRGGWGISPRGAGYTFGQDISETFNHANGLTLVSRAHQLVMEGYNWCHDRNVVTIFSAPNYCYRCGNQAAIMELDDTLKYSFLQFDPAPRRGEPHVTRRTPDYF

[2] = biological target: T2, PP2A catalytic subunit PP2Acα/β, endogenous (human (endogenous in HEK293T, HeLa, …, UniProt P67775 1-309, carboxyl methyl ester on the C-terminal leucine in wild-type cells; strongly reduced in LCMT1 hypomorph cells); test: affinity purification with mass spectrometry; PIB-MS: phosphatase inhibitor beads (microcystin-LR on sepharose) on HeLa lysates, wild type and LCMT1 hypomorph clone; label-free LC-MS/MS; subunits normalised to the respective catalytic subunit
T2 construct: PP2A catalytic subunit, alpha (PPP2CA) or beta (PPP2CB) isoform; One molecule for wild-type and LCMT1 hypomorph cells; also called PP2Acβ; PPP2CA/B
T2 sequence (P67775 whole entry, canonical isoform): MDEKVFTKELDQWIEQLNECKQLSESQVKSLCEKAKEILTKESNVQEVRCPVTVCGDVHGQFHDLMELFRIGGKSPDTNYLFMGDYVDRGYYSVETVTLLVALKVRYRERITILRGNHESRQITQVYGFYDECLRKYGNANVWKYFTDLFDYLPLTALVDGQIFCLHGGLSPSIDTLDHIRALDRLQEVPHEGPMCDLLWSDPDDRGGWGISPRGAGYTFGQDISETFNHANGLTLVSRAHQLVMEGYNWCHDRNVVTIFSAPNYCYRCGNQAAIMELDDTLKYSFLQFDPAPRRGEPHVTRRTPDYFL

[3] = biological target: T2, PP2A catalytic subunit PP2Acα/β, …; test: affinity purification with mass spectrometry; PIB-MS: phosphatase inhibitor beads (microcystin-LR on sepharose) on Rpe1 lysates, wild type and pooled LCMT1 hypomorph cells; label-free LC-MS/MS; subunits normalised to the respective catalytic subunit

fold reduction of binding, ΔL against WT [1]: ~2 fold
B1: PR65β, PP2A scaffolding (A) subunit (natural protein, UniProt P30154 1-601, looked up)
chain: MAGASELGTGPGAAGGDGDDSLYPIAVLIDELRNEDVQLRLNSIKKLSTIALALGVERTRSELLPFLTDTIYDEDEVLLALAEQLGNFTGLVGGPDFAHCLLPPLENLATVEETVVRDKAVESLRQISQEHTPVALEAYFVPLVKRLASGDWFTSRTSACGLFSVCYPRASNAVKAEIRQQFRSLCSDDTPMVRRAAASKLGEFAKVLELDSVKSEIVPLFTSLASDEQDSVRLLAVEACVSIAQLLSQDDLETLVMPTLRQAAEDKSWRVRYMVADRFSELQKAMGPKITLNDLIPAFQNLLKDCEAEVRAAAAHKVKELGENLPIEDRETIIMNQILPYIKELVSDTNQHVKSALASVIMGLSTILGKENTIEHLLPLFLAQLKDECPDVRLNIISNLDCVNEVIGIRQLSQSLLPAIVELAEDAKWRVRLAIIEYMPLLAGQLGVEFFDEKLNSLCMAWLVDHVYAIREAATNNLMKLVQKFGTEWAQNTIVPKVLVMANDPNYLHRMTTLFCINALSEACGQEITTKQMLPIVLKMAGDQVANVRFNVAKSLQKIGPILDTNALQGEVKPVLQKLGQDEDMDVKYFAQEAISVLALA
notes: PP2A scaffolding subunit A, beta isoform (PR65β)

fold reduction of binding, ΔL against WT [1]: 11 fold | fold more reduced in binding (LCMT1 HM against WT cells) than B56γ and B56δ [2]: 8 fold
B3: B56ε, PP2A regulatory subunit (natural protein)
chain: not shown
notes: PP2A regulatory subunit B56, epsilon isoform

fold reduction of binding, ΔL against WT [1]: 2 fold
B4: B56δ, PP2A regulatory subunit (natural protein)
chain: not shown
notes: PP2A regulatory subunit B56, delta isoform

fold reduction of binding, LCMT1 HM against WT cells [3]: 4 fold
B7: STRN (striatin) (natural protein, human (endogenous in Rpe1), UniProt O43815 1-780, looked up)
chain: MDEQAGPGVFFSNNHPGAGGAKGLGPLAEAAAAGDGAAAAGAARAQYSLPGILHFLQHEWARFEVERAQWEVERAELQAQIAFLQGERKGQENLKKDLVRRIKMLEYALKQERAKYHKLKYGTELNQGDMKPPSYDSDEGNETEVQPQQNSQLMWKQGRQLLRQYLQEVGYTDTILDVKSKRVRALLGFSSDVTDREDDKNQDSVVNGTEAEVKETAMIAKSELTDSASVLDNFKFLESAAADFSDEDEDDDVDGREKSVIDTSTIVRKKALPDSGEDRDTKEALKEFDFLVTSEEGDNESRSAGDGTDWEKEDQCLMPEAWNVDQGVITKLKEQYKKERKGKKGVKRPNRSKLQDMLANLRDVDELPSLQPSVGSPSRPSSSRLPEHEINRADEVEALTFPPSSGKSFIMGADEALESELGLGELAGLTVANEADSLTYDIANNKDALRKTWNPKFTLRSHFDGIRALAFHPIEPVLITASEDHTLKMWNLQKTAPAKKSTSLDVEPIYTFRAHKGPVLCVVMSSNGEQCYSGGTDGLIQGWNTTNPNIDPYDSYDPSVLRGPLLGHTDAVWGLAYSAAHQRLLSCSADGTLRLWNTTEVAPALSVFNDTKELGIPASVDLVSSDPSHMVASFSKGYTSIFNMETQQRILTLESNVDTTANSSCQINRVISHPTLPISITAHEDRHIKFYDNNTGKLIHSMVAHLEAVTSLAVDPNGLYLMSGSHDCSIRLWNLESKTCIQEFTAHRKKFEESIHDVAFHPSKCYIASAGADALAKVFV
notes: Striatin, PP2A regulatory subunit of the striatin family (B'''); source: endogenous, Rpe1 lysate

fold reduction of binding, LCMT1 HM against WT cells [3]: 4 fold
B8: STRN3 (striatin-3) (natural protein, human (endogenous in Rpe1), UniProt Q13033 1-797, looked up)
chain: MDELAGGGGGGPGMAAPPRQQQGPGGNLGLSPGGNGAAGGGGPPASEGAGPAAGPELSRPQQYTIPGILHYIQHEWARFEMERAHWEVERAELQARIAFLQGERKGQENLKKDLVRRIKMLEYALKQERAKYHKLKYGTELNQGDLKMPTFESEETKDTEAPTAPQNSQLTWKQGRQLLRQYLQEVGYTDTILDVRSQRVRSLLGLSNSEPNGSVETKNLEQILNGGESPKQKGQEIKRSSGDVLETFNFLENADDSDEDEENDMIEGIPEGKDKHRMNKHKIGNEGLAADLTDDPDTEEALKEFDFLVTAEDGEGAGEARSSGDGTEWDKDDLSPTAEVWDVDQGLISKLKEQYKKERKGKKGVKRANRTKLYDMIADLGDDELPHIPSGIINQSRSASTRMTDHEGARAEEAEPITFPSGGGKSFIMGSDDVLLSVLGLGDLADLTVTNDADYSYDLPANKDAFRKTWNPKYTLRSHFDGVRALAFHPVEPVLVTASEDHTLKLWNLQKTVPAKKSASLDVEPIYTFRAHIGPVLSLAISSNGEQCFSGGIDATIQWWNMPSPSVDPYDTYEPNVLAGTLVGHTDAVWGLAYSGIKNQLLSCSADGTVRLWNPQEKLPCICTYNGDKKHGIPTSVDFIGCDPAHMVTSFNTGSAVIYDLETSQSLVILSSQVDSGLQSNNHINRVVSHPTLPVTITAHEDRHIKFFDNKTGKMIHSMVAHLDAVTSLAVDPNGIYLMSGSHDCSIRLWNLDSKTCVQEITAHRKKLDESIYDVAFHSSKAYIASAGADALAKVFV
notes: Striatin-3, PP2A regulatory subunit of the striatin family (B'''); source: endogenous, Rpe1 lysate

The remaining lines, values behind:

B2: B56α, PP2A regulatory subunit (natural protein)
chain: not shown
notes: PP2A regulatory subunit B56, alpha isoform
fold reduction of binding, ΔL against WT [1]: 32 fold

B5: B55α, PP2A regulatory subunit (natural protein, human (endogenous in HeLa), UniProt P63151 1-447, looked up)
chain: MAGAGGGNDIQWCFSQVKGAVDDDVAEADIISTVEFNHSGELLATGDKGGRVVIFQQEQENKIQSHSRGEYNVYSTFQSHEPEFDYLKSLEIEEKINKIRWLPQKNAAQFLLSTNDKTIKLWKISERDKRPEGYNLKEEDGRYRDPTTVTTLRVPVFRPMDLMVEASPRRIFANAHTYHINSISINSDYETYLSADDLRINLWHLEITDRSFNIVDIKPANMEELTEVITAAEFHPNSCNTFVYSSSKGTIRLCDMRASALCDRHSKLFEEPEDPSNRSFFSEIISSISDVKFSHSGRYMMTRDYLSVKIWDLNMENRPVETYQVHEYLRSKLCSLYENDCIFDKFECCWNGSDSVVMTGSYNNFFRMFDRNTKRDITLEASRENNKPRTVLKPRKVCASGKRKKDEISVDSLDFNKKILHTAWHPKENIIAVATTNNLYIFQDKVN
notes: PP2A regulatory subunit B55, alpha isoform; source: endogenous, HeLa lysate
fold reduction of binding, LCMT1 HM against WT cells [2]: ~11 fold

B6: B55β, PP2A regulatory subunit (natural protein, human (endogenous in HeLa), UniProt Q00005 1-443, looked up)
chain: MEEDIDTRKINNSFLRDHSYATEADIISTVEFNHTGELLATGDKGGRVVIFQREQESKNQVHRRGEYNVYSTFQSHEPEFDYLKSLEIEEKINKIRWLPQQNAAYFLLSTNDKTVKLWKVSERDKRPEGYNLKDEEGRLRDPATITTLRVPVLRPMDLMVEATPRRVFANAHTYHINSISVNSDYETYMSADDLRINLWNFEITNQSFNIVDIKPANMEELTEVITAAEFHPHHCNTFVYSSSKGTIRLCDMRASALCDRHTKFFEEPEDPSNRSFFSEIISSISDVKFSHSGRYIMTRDYLTVKVWDLNMENRPIETYQVHDYLRSKLCSLYENDCIFDKFECVWNGSDSVIMTGSYNNFFRMFDRNTKRDVTLEASRENSKPRAILKPRKVCVGGKRRKDEISVDSLDFSKKILHTAWHPSENIIAVAATNNLYIFQDKVN
notes: PP2A regulatory subunit B55, beta isoform; source: endogenous, HeLa lysate
fold reduction of binding, LCMT1 HM against WT cells [2]: ~4 fold

— publication PMC8630191, “Regulation of PP2A, PP4, and PP6 holoenzyme assembly by carboxyl-terminal methylation” (Scientific Reports, 2021)
